The results in this text go back to the supplement of paper PMC9112550, “Optimization of the antimicrobial peptide Bac7 by deep mutational scanning” (BMC Biology, 2022).
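Also: peptides expressed intracellularly from a pBAD plasmid library in pooled LB shake-flask culture, induced with 0.3% L-arabinose, DNA abundance read by NGS, three biological replicates, DESeq2 with apeglm shrinkage.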

The series deals with Escherichia coli TOP10. Kind of series: shrunken log2 fold change of peptide-encoding DNA abundance (4.5 h post-induction vs induction); higher = less antimicrobial activity (less host growth inhibition). The conditions noted are these: time post-induction: 4.5 h; library: site-saturation at positions 5, 18, 19, 20.
For the sequence RRIRTRPPRLPRPRPRPEWPPRP, the “shrunken log2 fold change” value was 0.351.

RRIRGRPPRLPRPRPRPNYYPRP: the “shrunken log2 fold change” value is -0.254. In the case of RRIRERPPRLPRPRPRPSQKPRP, the “shrunken log2 fold change” value amounted to 0.0497. Turning to RRIRHRPPRLPRPRPRPCIYPRP, the “shrunken log2 fold change” value was -0.196. The result for RRIRSRPPRLPRPRPRPQWDPRP reads -0.235; that for RRIRRRPPRLPRPRPRPFEWPRP, -0.0864. For RRIRNRPPRLPRPRPRPRNAPRP, the “shrunken log2 fold change” value worked out at 0.0122. The result for RRIRKRPPRLPRPRPRPLSLPRP reads -0.131; that for RRIRHRPPRLPRPRPRPHHDPRP, -0.166. To RRIRQRPPRLPRPRPRPRIAPRP belongs 0.111; to RRIRCRPPRLPRPRPRPDHKPRP, -1.04. As to RRIRKRPPRLPRPRPRPLYLPRP, the “shrunken log2 fold change” value was -0.17. The result for RRIRKRPPRLPRPRPRPQDQPRP reads 0.325.

In the case of RRIRSRPPRLPRPRPRPSVRPRP, the “shrunken log2 fold change” value is -0.0911. With RRIRDRPPRLPRPRPRPRFFPRP, the “shrunken log2 fold change” value turned out to be 0.226. The result for RRIRVRPPRLPRPRPRPQHQPRP reads -0.571; that for RRIRKRPPRLPRPRPRPCLRPRP, -0.081; that for RRIRCRPPRLPRPRPRPGVIPRP, -0.0294. Consider RRIRVRPPRLPRPRPRPQMTPRP, for which the “shrunken log2 fold change” value is -0.0158. For the sequence RRIRHRPPRLPRPRPRPFMAPRP, the “shrunken log2 fold change” value is -0.548. As to RRIRNRPPRLPRPRPRPYKPPRP, the “shrunken log2 fold change” value is -0.0731. Consider RRIRDRPPRLPRPRPRPIINPRP, for which the “shrunken log2 fold change” value was found to be 0.423. On to RRIRTRPPRLPRPRPRPDTNPRP, for which the “shrunken log2 fold change” value is -0.558. Take RRIRARPPRLPRPRPRPPPHPRP: the “shrunken log2 fold change” value was 1.03. Consider RRIRWRPPRLPRPRPRPFPNPRP, for which the “shrunken log2 fold change” value is -0.138. Take RRIRNRPPRLPRPRPRPSQTPRP: the “shrunken log2 fold change” value was -0.00249. For the sequence RRIRIRPPRLPRPRPRPHPDPRP, the “shrunken log2 fold change” value is -0.45. For the sequence RRIRNRPPRLPRPRPRPVCCPRP, the “shrunken log2 fold change” value was -0.146.

For the sequence RRIRPRPPRLPRPRPRPYLDPRP, the “shrunken log2 fold change” value was -0.908. The result for RRIRWRPPRLPRPRPRPDEYPRP reads -0.0763; that for RRIRDRPPRLPRPRPRPDNEPRP, -0.0213; that for RRIRTRPPRLPRPRPRPHAAPRP, 0.0465. For RRIRHRPPRLPRPRPRPQKYPRP, the “shrunken log2 fold change” value is -0.383. Take RRIRWRPPRLPRPRPRPLIPPRP: the “shrunken log2 fold change” value is -0.327.

For the sequence RRIRNRPPRLPRPRPRPWHGPRP, the “shrunken log2 fold change” value was -0.153. As for RRIRTRPPRLPRPRPRPTQTPRP, the “shrunken log2 fold change” value is -0.0408. RRIRLRPPRLPRPRPRPNEIPRP: the “shrunken log2 fold change” value turned out to be 0.0349. As to RRIRQRPPRLPRPRPRPMYEPRP, the “shrunken log2 fold change” value was -0.01.

RRIRFRPPRLPRPRPRPYQHPRP: the “shrunken log2 fold change” value is -0.898. Take RRIRWRPPRLPRPRPRPEFNPRP: the “shrunken log2 fold change” value was 0.609. With RRIRCRPPRLPRPRPRPHYRPRP, the “shrunken log2 fold change” value came to 0.127. RRIRHRPPRLPRPRPRPKHGPRP: the “shrunken log2 fold change” value was determined as 0.109. To RRIRNRPPRLPRPRPRPKMKPRP belongs -0.286; to RRIRERPPRLPRPRPRPFHNPRP, -0.413; to RRIRARPPRLPRPRPRPFDAPRP, 0.116.

Regarding RRIRTRPPRLPRPRPRPFMRPRP, the “shrunken log2 fold change” value was -0.0135. To RRIRNRPPRLPRPRPRPGQFPRP belongs -0.0134; to RRIRYRPPRLPRPRPRPAYWPRP, -0.029; to RRIRARPPRLPRPRPRPRHYPRP, -0.158. Consider RRIRYRPPRLPRPRPRPRIHPRP, for which the “shrunken log2 fold change” value is -0.287. Regarding RRIRMRPPRLPRPRPRPWDGPRP, the “shrunken log2 fold change” value was 0.0785.

On to RRIRFRPPRLPRPRPRPYMGPRP, for which the “shrunken log2 fold change” value is -0.225. For RRIRERPPRLPRPRPRPVRTPRP, the “shrunken log2 fold change” value is 0.496. As to RRIRCRPPRLPRPRPRPLHAPRP, the “shrunken log2 fold change” value came out at 0.369. As to RRIRQRPPRLPRPRPRPNQWPRP, the “shrunken log2 fold change” value is 0.0886. As to RRIRMRPPRLPRPRPRPLKWPRP, the “shrunken log2 fold change” value is 0.196.

In the case of RRIRCRPPRLPRPRPRPCLEPRP, the “shrunken log2 fold change” value was -0.0191. In the case of RRIRTRPPRLPRPRPRPDTLPRP, the “shrunken log2 fold change” value was 0.00154. Take RRIRGRPPRLPRPRPRPSYKPRP: the “shrunken log2 fold change” value was -0.197.

On to RRIRNRPPRLPRPRPRPDHIPRP, for which the “shrunken log2 fold change” value was determined as 0.00647. The result for RRIRLRPPRLPRPRPRPQAAPRP reads 0.0357; that for RRIRQRPPRLPRPRPRPFVTPRP, -1.13; that for RRIRIRPPRLPRPRPRPKNYPRP, -0.417. Turning to RRIRVRPPRLPRPRPRPAFQPRP, the “shrunken log2 fold change” value came to 0.151. RRIRARPPRLPRPRPRPLDQPRP: the “shrunken log2 fold change” value stood at 1.44. Consider RRIRERPPRLPRPRPRPCYMPRP, for which the “shrunken log2 fold change” value is -0.0163. To RRIRFRPPRLPRPRPRPSDIPRP belongs -0.385; to RRIRIRPPRLPRPRPRPDNVPRP, 0.0156; to RRIRSRPPRLPRPRPRPSWPPRP, -0.135. RRIRHRPPRLPRPRPRPIIYPRP: the “shrunken log2 fold change” value is -0.295. Consider RRIRFRPPRLPRPRPRPSNPPRP, for which the “shrunken log2 fold change” value was -0.674.

Regarding RRIRSRPPRLPRPRPRPHYGPRP, the “shrunken log2 fold change” value is -0.00176.

In the case of RRIRGRPPRLPRPRPRPQISPRP, the “shrunken log2 fold change” value is 0.259. Consider RRIRWRPPRLPRPRPRPKCHPRP, for which the “shrunken log2 fold change” value amounted to 0.206. With RRIRSRPPRLPRPRPRPHIKPRP, the “shrunken log2 fold change” value was -0.255. Regarding RRIRTRPPRLPRPRPRPFHQPRP, the “shrunken log2 fold change” value is -0.126. In the case of RRIRSRPPRLPRPRPRPSNAPRP, the “shrunken log2 fold change” value is -0.276. As to RRIRMRPPRLPRPRPRPRGRPRP, the “shrunken log2 fold change” value was 1.2.

Consider RRIRNRPPRLPRPRPRPMLKPRP, for which the “shrunken log2 fold change” value was -0.0393. RRIRKRPPRLPRPRPRPNDRPRP: the “shrunken log2 fold change” value was -0.0503. To RRIRSRPPRLPRPRPRPNSKPRP belongs -0.382; to RRIRARPPRLPRPRPRPKEKPRP, 0.0797.

RRIRKRPPRLPRPRPRPFDTPRP: the “shrunken log2 fold change” value was -0.0262. To RRIRPRPPRLPRPRPRPHSHPRP belongs 0.00335.

As for RRIRWRPPRLPRPRPRPQCVPRP, the “shrunken log2 fold change” value is -0.0311. For RRIRTRPPRLPRPRPRPIQLPRP, the “shrunken log2 fold change” value is -0.122. For the sequence RRIRPRPPRLPRPRPRPRVAPRP, the “shrunken log2 fold change” value turned out to be 0.743. As for RRIRCRPPRLPRPRPRPAGYPRP, the “shrunken log2 fold change” value is -0.342.

In the case of RRIRTRPPRLPRPRPRPIFEPRP, the “shrunken log2 fold change” value was -0.113. RRIRKRPPRLPRPRPRPSPAPRP: the “shrunken log2 fold change” value is 0.478.

Turning to RRIRIRPPRLPRPRPRPHMVPRP, the “shrunken log2 fold change” value was -0.181.

With RRIRNRPPRLPRPRPRPMCMPRP, the “shrunken log2 fold change” value is -0.106. On to RRIRGRPPRLPRPRPRPANKPRP, for which the “shrunken log2 fold change” value is 0.209. In the case of RRIRPRPPRLPRPRPRPPWDPRP, the “shrunken log2 fold change” value was found to be 0.312.

Consider RRIRYRPPRLPRPRPRPPLAPRP, for which the “shrunken log2 fold change” value amounted to 0.13. For the sequence RRIRARPPRLPRPRPRPFVDPRP, the “shrunken log2 fold change” value came out at 0.302. To RRIRDRPPRLPRPRPRPRPVPRP belongs 0.466; to RRIRSRPPRLPRPRPRPDTYPRP, -0.713; to RRIRTRPPRLPRPRPRPQIAPRP, -0.0663.

In the case of RRIRARPPRLPRPRPRPRPDPRP, the “shrunken log2 fold change” value was determined as 0.819. Regarding RRIRWRPPRLPRPRPRPYFHPRP, the “shrunken log2 fold change” value is -0.625.

RRIRNRPPRLPRPRPRPAPKPRP: the “shrunken log2 fold change” value was 0.377. Turning to RRIRSRPPRLPRPRPRPLNYPRP, the “shrunken log2 fold change” value was -0.166. The result for RRIRMRPPRLPRPRPRPIWQPRP reads -0.224; that for RRIRPRPPRLPRPRPRPEDNPRP, -0.0402; that for RRIRYRPPRLPRPRPRPGAYPRP, -0.292. Turning to RRIRKRPPRLPRPRPRPQRPPRP, the “shrunken log2 fold change” value was 0.518. As to RRIRPRPPRLPRPRPRPVFNPRP, the “shrunken log2 fold change” value is -0.344. On to RRIRVRPPRLPRPRPRPWSIPRP, for which the “shrunken log2 fold change” value was -0.0192. As for RRIRERPPRLPRPRPRPDAHPRP, the “shrunken log2 fold change” value is -0.308. For RRIRNRPPRLPRPRPRPWLFPRP, the “shrunken log2 fold change” value was 0.0966. With RRIRERPPRLPRPRPRPAQTPRP, the “shrunken log2 fold change” value came to 0.0281.

For RRIRIRPPRLPRPRPRPGMDPRP, the “shrunken log2 fold change” value was -0.295. To RRIRRRPPRLPRPRPRPEYDPRP belongs 0.109. The result for RRIRWRPPRLPRPRPRPQVKPRP reads 0.0306. Regarding RRIRSRPPRLPRPRPRPMTDPRP, the “shrunken log2 fold change” value is -0.222.

Turning to RRIRGRPPRLPRPRPRPGVYPRP, the “shrunken log2 fold change” value came to 0.0589.

For RRIRDRPPRLPRPRPRPGSIPRP, the “shrunken log2 fold change” value was determined as 0.0264.

Consider RRIRQRPPRLPRPRPRPHMRPRP, for which the “shrunken log2 fold change” value was found to be 0.36.

Take RRIRIRPPRLPRPRPRPEDFPRP: the “shrunken log2 fold change” value is 0.00408.

In the case of RRIRLRPPRLPRPRPRPYQAPRP, the “shrunken log2 fold change” value worked out at 0.0204.

Consider RRIRRRPPRLPRPRPRPADIPRP, for which the “shrunken log2 fold change” value is -0.0589.

On to RRIRTRPPRLPRPRPRPYWQPRP, for which the “shrunken log2 fold change” value was -0.435.

RRIRCRPPRLPRPRPRPHLHPRP: the “shrunken log2 fold change” value is -0.626.

For RRIRIRPPRLPRPRPRPMAAPRP, the “shrunken log2 fold change” value was 0.403.
